Reference: doi:10.1101/693663 (bioRxiv, 2019)
Values belong to the molecule of their own block, whether it stands above or below them.

Legend:
[1] = target: ASK1(1290–1374), C-terminal SAM domain of ASK1 (human) (UniProt Q99683); test: SAXS
[2] = target: ASK2(1216–1288), C-terminal SAM domain of ASK2 (human) (UniProt O95382); test: AUC
GST-ASK2 SAM domain = target: T1, GST-ASK2 SAM domain (human, UniProt O95382 1216-1288); test: pull-down
T1 sequence (looked up): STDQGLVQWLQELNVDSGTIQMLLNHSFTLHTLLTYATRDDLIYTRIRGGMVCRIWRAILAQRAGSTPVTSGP

SAXS = target: the molecule itself; test: SAXS
SEC = target: the molecule itself; test: SEC

stoichiometry N [1]: 2
Molecule: ASK1(1290–1374), C-terminal SAM domain of ASK1 (from UniProt Q99683 1290-1374) (domain or fragment)

stoichiometry N [2]: 2
Molecule: ASK2(1216–1288), C-terminal SAM domain of ASK2 (from UniProt O95382 1216-1288) (domain or fragment)

binding result (GST-ASK2 SAM domain): binds
B1: ASK3(1241–1313), C-terminal SAM domain of ASK3 (domain or fragment, human, UniProt Q6ZN16 1241-1313, looked up)
chain: DKELIDWLRLQGADAKTIEKIVEEGYTLSDILNEITKEDLRYLRLRGGLLCRLWSAVSQYRRAQEASETKDKA
stoichiometry N (SAXS): 6

B2: ASK3 SAM domain K1242E (domain or fragment, human, UniProt Q6ZN16 1241-1313, looked up)
chain: DEELIDWLRLQGADAKTIEKIVEEGYTLSDILNEITKEDLRYLRLRGGLLCRLWSAVSQYRRAQEASETKDKA
binding result (SEC): binds

B3: ASK3 SAM domain Q1304A (domain or fragment, human, UniProt Q6ZN16 1241-1313, looked up)
chain: DKELIDWLRLQGADAKTIEKIVEEGYTLSDILNEITKEDLRYLRLRGGLLCRLWSAVSQYRRAAEASETKDKA
binding result (SEC): binds

B4: ASK3 SAM domain V1262N (domain or fragment, human, UniProt Q6ZN16 1241-1313, looked up)
chain: DKELIDWLRLQGADAKTIEKINEEGYTLSDILNEITKEDLRYLRLRGGLLCRLWSAVSQYRRAQEASETKDKA
binding result (SEC): binds
